{
  "source": "paper PMC9734377",
  "about": "(Communications Biology, 2022)",
  "molecules": {"B1": {"name": "LdG6PD wt dimer (LdG6PD^Dimer) (Leishmania donovani) (protein)", "chain": "MSEEQSHADQDAYVADVDGILDVLRAQVLERKPDDIFQFISKSALSLQKDRGAESCDRINCKVKDEQKSRALTIIVFGASGDLAKKKTFPALFDLYCGGLLPPEVNIIGYARTKVDDVEKWKHETLMKYFSNLSERGCHAEDFLKHISYFCGAYDSVDDFKRLDAVIREKENAFKGPEKGGNRLFYLALPPSVFASVCESIHKGAMPQEVGGWVRVIIEKPFGRDTKSSAELSQALEPFFDESQLYRIDHYLGKEMVQNIITTRFANRIFSAVWNASNIACVQITFKETIGTEGRGGYFDNIGIIRDVMQNHLTQILALLAMEKPRSLDAECIRDEKVSVLKCIEPITKENCVLGQYTASADGSIPGYLEDVTVPEGSTCPTFAVMRLNINNDRWAGVPFILKAGKAVEQKYVAIRIQFRDEVHPYGEATQRNELVIRAQPSEAMYVKITTKVPGLSGDLRQTHQTELDLTYHTRYDVRLPDAYESLINDALLGNSTNFVRKDELDVAWRIFTPLLHQIDSGEIKPIPYQAGTRGPKEADEFIANNGFKHQKGYHWLPSNKL"}, "B2": {"name": "LdG6PD wt tetramer (LdG6PD^Tetramer) (Leishmania donovani) (protein)", "chain": "B1 chain"}, "B3": {"name": "LmG6PD wt (Leishmania major) (protein)", "chain": "MSEEQSHADQDAYVADVDGILDVLRAEVLERKPDDVFQFISQSALSLQKDRGAESCDRINCKVTDEQKSRALTIIVFGASGDLAKKKTFPALFDLYCGGLLPPEVNVIGYARTKVDDAERWKRETLMTYFSNVPERACHAEDFLKHISYFCGSYDKVDDFKRLDAVIREKENAFKGPEKGGNRLFYLALPPSVFASVCESIHKGAMPQEVGGWARVIIEKPFGRDTKSSAELSRALEPFFDESQLYRIDHYLGKEMVQNIITTRFANRIFSAVWNSNNIACVQITFKETIGTEGRGGYFDGIGIIRDVMQNHLTQILALLAMEKPRSLDAECIRDEKVSVLKCIEPITKENCVLGQYTASADGSIPGYQEDVTVPEGSTCPTFAVMRLNINNDRWAGVPFILKAGKAVEQKYVAIRIQFKDEVHPYGEATQRNELVIRAQPSEAMYVKITTKVPGLSGDLRQTHQTELDLTYHTRYDVRLPDAYESLINDALLGNSTNFVRKDELDVAWRIFTPLLHQIDCGEIKPIPYQAGTRGPKEADEFITNNGFKHQKGYQWLPSNKL"}},
  "key": {"[1]": {"biological_target": "T1, LdG6PD wt dimer (LdG6PD^Dimer) (Leishmania donovani, UniProt A2CIL3)", "T1 construct": "gene g6pdh", "T1 sequence (A2CIL3 1-562)": "B1 chain", "experiment": "dead-end inhibition, Lineweaver-Burk", "format": "biochemical", "conditions": "0-20 µM GlcN 6-P; competitive against G6P, not against NADP+; pH 7.5, 25 °C; oligomer fraction not told"}, "[2]": {"biological_target": "T1, LdG6PD wt dimer (LdG6PD^Dimer)", "experiment": "product inhibition, Lineweaver-Burk", "format": "biochemical", "conditions": "0-80 µM NADPH; competitive against NADP+ (G6P 800 µM) and against G6P (NADP+ 200 µM); pH 7.5, 25 °C; oligomer fraction not told"}, "[3]": {"system": "NC(=O)c1ccc[n+]([C@@H]2O[C@H](COP(=O)(O)OP(=O)(O)OC[C@H]3O[C@@H](n4cnc5c(N)ncnc54)[C@H](OP(=O)(O)O)[C@@H]3O)[C@@H](O)[C@H]2O)c1", "experiment": "purified protein", "format": "biochemical, Leishmania donovani", "conditions": "800 µM G6P, 50 mM Tris pH 7.5, 3.3 mM MgCl2, 25 °C, crystal ligand given as NADP(H), redox state open"}, "[4]": {"biological_target": "Leishmania donovani glucose 6-phosphate dehydrogenase C138S mutant (Leishmania donovani)", "experiment": "SEC"}, "[5]": {"biological_target": "Leishmania donovani glucose 6-phosphate dehydrogenase truncation mutant lacking the first 59 N-terminal amino acids (Leishmania donovani)", "experiment": "SEC"}, "[6]": {"biological_target": "Leishmania donovani glucose 6-phosphate dehydrogenase wild type (Leishmania donovani)", "experiment": "SEC; HiLoad 16/60 Superdex 200, buffer A (500 mM NaCl, 50 mM Tris, pH 7.8), native conditions; for LdG6PD wt also 12-300 uM enzyme, 5 mM DTT, 2 mM H2O2, substrates (100 uM G6P, NADP+), 0.1-1 M NaCl, pH 4.8-7.8, all without change of the profile; self-association: monomers to dimer and dimers to tetramer"}, "[7]": {"biological_target": "Leishmania major glucose 6-phosphate dehydrogenase wild type (Leishmania major)", "experiment": "SEC; HiLoad 16/60 Superdex 200, buffer A (500 mM NaCl, 50 mM Tris, pH 7.8), native conditions; for LdG6PD wt also 12-300 uM enzyme, 5 mM DTT, 2 mM H2O2, substrates (100 uM G6P, NADP+), 0.1-1 M NaCl, pH 4.8-7.8, all without change of the profile; self-association: monomers to dimer and dimers to tetramer"}, "purified protein [8]": {"substrate": "NC(=O)c1ccc[n+]([C@@H]2O[C@H](COP(=O)(O)OP(=O)(O)OC[C@H]3O[C@@H](n4cnc5c(N)ncnc54)[C@H](OP(=O)(O)O)[C@@H]3O)[C@@H](O)[C@H]2O)c1", "experiment": "purified protein", "conditions": "800 µM G6P"}, "purified protein [9]": {"substrate": "NC(=O)c1ccc[n+]([C@@H]2O[C@H](COP(=O)(O)OP(=O)(O)OC[C@H]3O[C@@H](n4cnc5c(N)ncnc54)[C@H](OP(=O)(O)O)[C@@H]3O)[C@@H](O)[C@H]2O)c1", "experiment": "purified protein", "format": "biochemical, Leishmania donovani", "conditions": "800 µM G6P, 50 mM Tris pH 7.5, 3.3 mM MgCl2, 25 °C, tetramer fraction"}},
  "note": "Where “and” joins values, the source holds several entries; their conditions need not be identical. Equal entries are not always repeated.",
  "data": [
    {"molecule": "N[C@H]1C(O)O[C@H](COP(=O)(O)O)[C@@H](O)[C@@H]1O", "note": "(stereo partly shown) [GlcN 6-P, glucosamine 6-phosphate]", "values": [
      {"measurement": "dead-end inhibition, Lineweaver-Burk", "setting": "[1]", "result": "GlcN 6-P shows a competitive inhibition pattern towards G6P"}
    ]},
    {"molecule": "NC(=O)C1=CN([C@@H]2O[C@H](COP(=O)(O)OP(=O)(O)OC[C@H]3O[C@@H](n4cnc5c(N)ncnc54)[C@H](OP(=O)(O)O)[C@@H]3O)[C@@H](O)[C@H]2O)C=CC1", "note": "[NADPH]", "values": [
      {"measurement": "product inhibition, Lineweaver-Burk", "setting": "[2]", "result": "NADPH was found to be a competitive inhibitor with respect to NADP^+ in LdG6PD"}
    ]},
    {"molecule": "LdG6PD^60–562 (Leishmania donovani)", "values": [
      {"measurement": "Km", "setting": "[3]", "result": "14.3 ± 2.2", "unit": "µM"},
      {"measurement": "Vmax", "setting": "[3]", "result": 233, "unit": "µmol/min/mg"},
      {"measurement": "kcat", "setting": "[3]", "result": "234 ± 18.8", "unit": "s⁻¹"},
      {"measurement": "kcat/Km", "setting": "[3]", "result": "1.7e+07 ± 2.5e+06", "unit": "M⁻¹ s⁻¹"}
    ]},
    {"molecule": "Leishmania donovani glucose 6-phosphate dehydrogenase C138S mutant (enzyme)", "values": [
      {"measurement": "stoichiometry N", "setting": "[4]", "result": "2 and 4"}
    ]},
    {"molecule": "Leishmania donovani glucose 6-phosphate dehydrogenase truncation mutant lacking the first 59 N-terminal amino acids (domain or fragment)", "values": [
      {"measurement": "stoichiometry N", "setting": "[5]", "result": 2}
    ]},
    {"molecule": "Leishmania donovani glucose 6-phosphate dehydrogenase wild type (enzyme)", "values": [
      {"measurement": "stoichiometry N", "setting": "[6]", "result": "4 and 2"}
    ]},
    {"molecule": "Leishmania major glucose 6-phosphate dehydrogenase wild type (enzyme)", "values": [
      {"measurement": "stoichiometry N", "setting": "[7]", "result": "2 and 4"}
    ]},
    {"molecule": "B1", "values": [
      {"measurement": "Km", "setting": "purified protein [8]; 50 mM Tris pH 7.5, 3.3 mM MgCl2, 0.005% Tween, 1 mg/mL BSA, 25 °C, dimer fraction, crystal ligand given as NADP(H), redox state open", "result": "15.9 ± 1.1", "unit": "µM"}
    ]},
    {"molecule": "B2", "values": [
      {"measurement": "Km", "setting": "purified protein [9]", "result": "14.2 ± 0.9", "unit": "µM"},
      {"measurement": "Vmax", "setting": "purified protein [9]", "result": 185, "unit": "µmol/min/mg"},
      {"measurement": "kcat", "setting": "purified protein [9]", "result": "204 ± 13.6", "unit": "s⁻¹"},
      {"measurement": "kcat/Km", "setting": "purified protein [9]", "result": "1.49e+07 ± 3e+06", "unit": "M⁻¹ s⁻¹"}
    ]},
    {"molecule": "B3", "values": [
      {"measurement": "Km", "setting": "purified protein [8]; 50 mM Tris pH 7.5, 3.3 mM MgCl2, 25 °C", "result": "11.4 ± 1.5", "unit": "µM"}
    ]}
  ]
}
